From patent US20080070264A1, “Intracellular Signaling-Induced Ret-Independent Gdnf Receptor-Effected Morphological Changes” (JPMORGAN CHASE BANK N.A., priority 2003, published 2008)

Experiments:
MET [1] = test: MET phosphorylation in MDCK cells (immunoprecipitation, Western blotting); assay type: cell-based, dog
Method: To detect MET activation, GFRα1- and RET/GFRα1-expressing MDCK or SHEP cells were starved overnight in MEM or RPMI 1640 with 1% FCS, respectively, and in serum-free medium for 2 h prior the induction. After 15 min incubation at 37° C. with GDNF (at indicated concentrations) or with 50 ng/ml HGF, cells were lysed as described. Cleared cell lysates were incubated with anti-MET antibodies (Santa Cruz Biotechnologies, Inc.) overnight at 4° C. Immunoprecipitates were collected with protein A-SEPHAROSE (Amersham Pharmacia Biotech), washed, separated by SDS-PAGE and transferred to HYBOND-ECL membranes. Membranes were immunoblotted with anti-phospho-tyrosine antibodies (Upstate Group Inc.) or anti-MET antibodies.
Alternatively, 30 μg of protein was incubated overnight at 4° C. with 10 μl Immobilized Phospho-Tyrosine Monoclonal Antibodies (Cell Signalling, NEB). Immunocomplexes were washed and analysed as described.
For all experiments, densitometry and quantifications were performed using TINA 2.0 program (Raytest, Straubenhardt, Germany).
For the inhibition of MET, and Src activation, SHEP or GFRα1- and RET/GFRα1-expressing MDCK cells were starved as described above. 1 or […] of the inhibitor PP2 (Calbiochem) was added 30 min before induction by GDNF or HGF. DMSO (dimethyl sulfoxide) was added to the positive controls together with GDNF or HGF.

MET [2] = target: T1, MET (Chlorocebus aethiops, UniProt Q2IBA6); test: 125I-labelled GDNF and HGF binding, chemical crosslinking, anti-MET immunoprecipitation; settings: RET/GFRα1-expressing MDCK cells; data not shown
T1 construct: different combinations of the MET β-subunit (140 kDa), Met-αβ heterodimer (190 kDa) and HGF complexes; endogenous in cells; host or cells: COS7 cells (wild type for 125I-HGF; transfected with pc3-GFRα1/GFP for 125I-GDNF)
T1 sequence (Q2IBA6 25-1381): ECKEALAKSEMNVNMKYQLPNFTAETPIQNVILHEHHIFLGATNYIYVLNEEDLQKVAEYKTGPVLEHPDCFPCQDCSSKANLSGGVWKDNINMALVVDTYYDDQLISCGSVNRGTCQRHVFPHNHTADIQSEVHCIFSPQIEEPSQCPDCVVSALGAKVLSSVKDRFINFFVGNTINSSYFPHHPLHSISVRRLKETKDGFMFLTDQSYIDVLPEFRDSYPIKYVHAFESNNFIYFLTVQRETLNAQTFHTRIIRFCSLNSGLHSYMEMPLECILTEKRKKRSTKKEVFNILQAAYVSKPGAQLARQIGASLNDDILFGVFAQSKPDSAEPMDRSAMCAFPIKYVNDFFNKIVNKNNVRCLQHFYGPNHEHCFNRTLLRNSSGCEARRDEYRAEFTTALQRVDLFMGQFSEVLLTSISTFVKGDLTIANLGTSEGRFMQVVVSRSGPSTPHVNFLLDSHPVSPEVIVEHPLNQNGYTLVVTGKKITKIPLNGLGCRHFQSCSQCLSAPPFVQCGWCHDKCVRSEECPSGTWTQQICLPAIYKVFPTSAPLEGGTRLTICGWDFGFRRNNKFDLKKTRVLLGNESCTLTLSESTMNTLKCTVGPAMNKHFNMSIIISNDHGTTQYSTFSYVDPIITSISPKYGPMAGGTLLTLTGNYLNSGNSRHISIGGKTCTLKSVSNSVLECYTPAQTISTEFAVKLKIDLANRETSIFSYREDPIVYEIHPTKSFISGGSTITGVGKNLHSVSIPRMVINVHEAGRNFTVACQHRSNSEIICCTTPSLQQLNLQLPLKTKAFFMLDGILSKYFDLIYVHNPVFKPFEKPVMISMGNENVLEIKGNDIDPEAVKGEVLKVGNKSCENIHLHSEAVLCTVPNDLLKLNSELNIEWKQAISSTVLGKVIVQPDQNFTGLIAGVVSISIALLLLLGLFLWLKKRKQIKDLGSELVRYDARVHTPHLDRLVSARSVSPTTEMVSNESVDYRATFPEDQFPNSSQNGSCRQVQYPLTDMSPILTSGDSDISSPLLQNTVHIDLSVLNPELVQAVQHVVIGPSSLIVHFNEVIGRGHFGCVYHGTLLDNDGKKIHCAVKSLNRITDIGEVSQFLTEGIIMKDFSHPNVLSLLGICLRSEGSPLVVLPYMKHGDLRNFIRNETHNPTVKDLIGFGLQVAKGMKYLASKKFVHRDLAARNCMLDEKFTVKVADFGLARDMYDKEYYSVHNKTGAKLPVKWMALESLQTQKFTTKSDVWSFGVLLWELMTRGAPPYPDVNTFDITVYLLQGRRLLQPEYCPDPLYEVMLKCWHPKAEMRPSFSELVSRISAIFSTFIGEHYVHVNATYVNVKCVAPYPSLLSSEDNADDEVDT
Method: Binding of ^125I-GDNF to COS7 cells transfected with GFRα1, and ^125-HGF to wild-type COS7, followed by cross-linking with EDC together with sulfo-NHS. Inmunoprecipitates with anti-MET antibodies (IP-Met) were analysed by SDS-PAGE under reducing conditions. ^125I-HGF α subunit and proHGF are marked by arrows. ^125I-HGF/MET complexes are denoted by arrow heads. The results are representative of five independent experiments.
GDNF and HGF were enzymatically iodinated with [^125I]NaI (Amersham Pharmacia Biotech) with lactoperoxidase to a specific activity of 100.000 cpm/ng as described (31). COS7 cells were transfected with pc3-GFRα1/GFP two days prior the assay. 2 nM of ^125I-GDNF or 1 nM of ^125I-HGF were allowed to bind to cell monolayers for 1-2 h on ice in binding buffer (DMEM/15 mM HEPES, pH 7.5; 0.2% BSA), washed, and chemically cross-linked for 30 min at room temperature using BS^3 ([Bis(sulfosuccinimidyl)suberate]), DSS ((Disulfosuccinimidyl)suberate), DSP (3,3-Dithio-bis-(sulfosuccinimidyl)propionate) or EDC ((1-Ethyl-3-[3-dimethylaminopropyl]carbodiimide Hydrochloride)) with sulfo-NHS (N-Hydroxysulfosuccinimide) (Pierce). The non-specific binding of GDNF was estimated by the amount of ^125I-GDNF binding to cells in the presence of 300 n M unlabeled GDNF. Cells were washed, lysed and immunoprecipitated with anti-MET antibodies as described. Gels were dried and analyzed by phosphorimaging in a BAS Reader 1800 (Fuji).

B1: GDNF: recombinant glial cell line-derived neurotrophic factor from Cephalon Inc. (baculovirus-infected insect cells) or R&D Systems, Inc. (mouse myeloma NSO) (protein, UniProt P39905 78-211, looked up)
Glial cell line-derived …: SPDKQMAVLPRRERNRQAAAANPENSRGKGRRGQRGKNRGCVLTAIHLNVTDLGLGYETKEELIFRYCSGSCDAAETTYDKILKNLSRNRRLVSDKVGQACCRPIAFDDDLSFLDDNLVYHILRKHSAKRCGCI
- MET phosphorylation (MET [1]; GFRα1- and Ret/GFRα1-expressing MDCK cells): evoked MET phosphorylation
- GDNF concentration at which MET activation reached saturation (MET [1]; GFRα1- and Ret/GFRα1-expressing MDCK cells, 15 min): 0.1 pg/mL
- time to MET activation (MET [1]; GFRα1-expressing and RET/GFRα1-expressing MDCK cells): ≤ 15 min
- duration of MET activation (MET [1]; GFRα1-expressing and RET/GFRα1-expressing MDCK cells, data not shown): at least 2 hours
- concentration at which MET is saturated (MET [1]; GFRα1-expressing and RET/GFRα1-expressing MDCK cells, printed as 4 fM (0.1 pg/ml)): 4 fM
- MET phosphorylation (MET [1]; wild type MDCK cells): but not in wild type MDCK cells
- direct association of the GDNF receptor complex and MET (MET [2]): no direct association
